Results reported in patent US10590440B2, “Process for producing a fermentation product from a lignocellulose-containing material” (CysBio ApS, priority 2014, dated 2020).

Tested on: E. coli
Test: Growth of E. coli with or without SULT1A1 in M9 with wheat straw biomass hydrolysate (Example 7, FIG. 9)
Assay type: cell-based, Escherichia coli
Conditions: 1 mM IPTG
From the text: Here, we examine pre-treated wheat straw biomass hydrolysate in growth medium for a biotechnological relevant organism, exemplified by E. coli. Specifically, we used strains carrying plasmids expressing SULT1A1 from rat (Rattus norvegicus) and SULT1E1 from chicken (Gallus gallus domesticus) (Example 1) cloned into the expression vector pETDuet-1, and cysDNCQ from E. coli cloned into expression vector pRSFDuet-1 (Example 2) as described previously.
Cells expressing no sulfotransferase or SULT1A1 from rat were grown in M9 media with 1 mM IPTG with or without inhibitors of growth. Biomass hydrolysate was prepared by mixing 100 g biomass hydrolysate with 200 g of water for 2 h at 37° C., followed by centrifugation and filtration through a 0.2 μL-filter.

B1: SULT1A1 Rattus norvegicus: aryl sulfotransferase SULT1A1 from Rattus norvegicus (SEQ ID NO: 1), native gene, heterologously expressed (protein, listed as Rattus norvegicus)
chain: MEFSRPPLVHVKGIPLIKYFAETIGPLQNFTAWPDDLLISTYPKSGTTWMSEILDMIYQGGKLEKCGRAPIYARVPFLEFKCPGVPSGLETLEETPAPRLLKTHLPLSLLPQSLLDQKVKVIYIARNAKDVVVSYYNFYNMAKLHPDPGTWDSFLENFMDGEVSYGSWYQHVKEWWELRHTHPVLYLFYEDIKENPKREIKKILEFLGRSLPEETVDSIVHHTSFKKMKENCMTNYTTIPTEIMDHNVSPFMRKGTTGDWKNTFTVAQNERFDAHYAKTMTDCDFKFRCEL
Q: Which “growth rate versus strain without sulfotransferase” value (M9 with 8% or 12% biomass hydrolysate) does the source give for B1 here?
A: Its value is “significantly higher”.

Q: What about the “growth rate versus strain without sulfotransferase” value (M9 without supplements) of the same molecule?
A: The value was “no difference in growth rate”.
